This is an account of results in US7618943B2, “Fusion polypeptides, and use thereof in antivascular tumor therapy” (Oncoscience AG, priority 2003, dated 2009).

Entries after “also recorded” stand apart in the source; their conditions may differ.

Data set [1] concerns the target T1, matrix metalloproteinase-2 (MMP-2) (Homo sapiens, UniProt P08253).
T1 sequence (P08253 110-660): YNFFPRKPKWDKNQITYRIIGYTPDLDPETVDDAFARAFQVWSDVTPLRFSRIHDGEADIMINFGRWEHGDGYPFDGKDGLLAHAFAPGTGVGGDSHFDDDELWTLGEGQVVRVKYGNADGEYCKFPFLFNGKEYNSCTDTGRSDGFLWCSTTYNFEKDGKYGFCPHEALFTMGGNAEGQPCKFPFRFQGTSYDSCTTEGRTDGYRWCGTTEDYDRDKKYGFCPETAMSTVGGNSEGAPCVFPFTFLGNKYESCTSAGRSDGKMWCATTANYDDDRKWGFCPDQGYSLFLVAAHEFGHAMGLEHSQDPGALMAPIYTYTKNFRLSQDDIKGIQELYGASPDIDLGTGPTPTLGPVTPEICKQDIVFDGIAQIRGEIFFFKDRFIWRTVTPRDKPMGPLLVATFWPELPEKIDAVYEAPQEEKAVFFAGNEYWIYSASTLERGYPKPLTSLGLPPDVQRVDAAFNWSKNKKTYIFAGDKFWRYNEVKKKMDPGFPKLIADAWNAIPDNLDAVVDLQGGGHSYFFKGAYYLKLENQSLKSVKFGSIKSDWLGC
To be noted: cited from earlier work.

Data set [2] has as its system human malignant melanoma (M21). Put plainly: M21 melanoma xenograft in athymic nude mice, intravenous therapy. It is filed as in vivo. The procedure:
The vertical arrows indicate the times of injection with the respective substances.
The vertical arrows indicate the times of the injections with the respective substances.
(§1) The tTF-RGD and tTF-NGR fusion proteins were evaluated with respect to their effects and side-effects on xenografts of human tumors in athymic nude mice. The models established in our laboratory were used for this (33, 34). The cell lines CCL185 (human adenocarcinoma of the lung) and M-21 (human melanoma) were injected subcutaneously into the flank of male BALB/c nude mice (9-12 weeks old). On attaining a tumor volume of about 50-100 mm^3 (CCL185) or 400-600 mm^3 (M−21), the mice were assigned to four groups at random. Group 1 received only physiological saline solution (NaCl), group 2 tTF, group 3 tTF-RGD, and group 4 tTF-NGR (in each case 1.5-2.0 mg/kg body weight (BW) of the protein). The injections were made in the caudal vein of the animals at intervals of 1-3 days (depending on the growth rate of the particular cell line). Considerable therapeutic activity of the fusion proteins was observed.

Data set [3] has as its system human fibrosarcoma (HT1080). Put plainly: HT1080 fibrosarcoma xenograft in BALB/c nude mice, intravenous therapy. It is filed as in vivo. The text has this:
b: Inhibition of a human fibrosarcoma (HT1080) growing as a xenograft in athymic nude mice by intravenous therapy with tTF fusion proteins (tTF-RGD, n=12) compared with the growth of the tumors with infusion of physiological saline solution (NaCl, n=15) or tTF (n=14). The vertical arrows indicate the times of the injections with the respective substances.
The antitumor activity of the tTF-RGD fusion protein was also investigated in BALB/c nude mice with fibrosarcomas (HT1080). These tumors grow rapidly and are well-vascularized. […] This effect lasted until the end of the experiment on day 7 (P=0.021 for tTF-RGD relative to the buffer control (physiological saline solution), P=0.005 for tTF-RGD relative to tTF).

A further data set has as its system tumor blood vessels. Put plainly: Macroscopy and histology of tumors after injection (thrombosis induction in tumor vessels, necrosis). The data set is classed as in vivo, mice. As to the method:
FIG. 9: Macroscopic in vivo photograph of a tumor-bearing mouse 20 min after injection of the tTF-NGR fusion protein (A, left half of the picture) or NaCl (A, right half of the picture). […] After 60 min, the two mice were exsanguinated, the tumor was excised in toto and examined histologically. […] In contrast, the NaCl-treated tumor appears to be vital (C).
FIG. 10: Histology of the melanoma tumor 1 hour after intravenous injection of tTF-RGD (A and B), tTF-NGR (C and D) and common salt (E and F) in the caudal vein of the tumor-bearing nude mouse. […] The photographs are of representative areas of the tumors (A, C and E: 200× magnification, B, D and F 400× magnification; HE staining (staining described e.g. in H. C. Burck, Histologische Technik-Leitfaden für die Herstellung mikroskopischer Präparate in Unterricht und Praxis, 5th edition, Thieme Verlag, Stuttgart 1982, pages 109 ff.).
FIG. 35: Macrograph of a mouse bearing an M21 tumor at the end of treatment (day 7) with tTF-RGD fusion protein (A, C) or NaCl (B, D).
To verify the mechanism of action of thrombosis induction in tumor vessels, the following experiment was carried out: the human melanoma cell line was injected into the flank of two male BALB/c nude mice. On attaining a tumor size of approx. 500 mm^3, 2.0 mg/kg BW tTF-NGR or NaCl was injected into the caudal vein. […] After 60 min the mice were exsanguinated, the tumor was excised in toto and investigated histologically. […] In contrast, the tumor treated with NaCl appears to be vital (FIG. 9C).

In the next data set the target is integrin αvβ3 (Homo sapiens, UniProt P05106+P06756). Put plainly: ELISA binding to immobilized purified αvβ3. To be noted: 0.1 μM protein, immobilized αvβ3. The procedure: FIG. 4: Binding of tTF, tTF-RGD and tTF-NGR to integrin αvβ3. The binding of 0.1 μM tTF, tTF-RGD and tTF-NGR to immobilized αvβ3 was quantified with a polyclonal antibody against human TF (American Diagnostica) in an ELISA. The results are presented as median and interquartile range. The differences in binding between tTF-RGD and tTF or between tTF-NGR and tTF were statistically significant (p<0.001, Mann-Whitney test).
Sequence of integrin αvβ3 (P06756 31-889 limits assumed): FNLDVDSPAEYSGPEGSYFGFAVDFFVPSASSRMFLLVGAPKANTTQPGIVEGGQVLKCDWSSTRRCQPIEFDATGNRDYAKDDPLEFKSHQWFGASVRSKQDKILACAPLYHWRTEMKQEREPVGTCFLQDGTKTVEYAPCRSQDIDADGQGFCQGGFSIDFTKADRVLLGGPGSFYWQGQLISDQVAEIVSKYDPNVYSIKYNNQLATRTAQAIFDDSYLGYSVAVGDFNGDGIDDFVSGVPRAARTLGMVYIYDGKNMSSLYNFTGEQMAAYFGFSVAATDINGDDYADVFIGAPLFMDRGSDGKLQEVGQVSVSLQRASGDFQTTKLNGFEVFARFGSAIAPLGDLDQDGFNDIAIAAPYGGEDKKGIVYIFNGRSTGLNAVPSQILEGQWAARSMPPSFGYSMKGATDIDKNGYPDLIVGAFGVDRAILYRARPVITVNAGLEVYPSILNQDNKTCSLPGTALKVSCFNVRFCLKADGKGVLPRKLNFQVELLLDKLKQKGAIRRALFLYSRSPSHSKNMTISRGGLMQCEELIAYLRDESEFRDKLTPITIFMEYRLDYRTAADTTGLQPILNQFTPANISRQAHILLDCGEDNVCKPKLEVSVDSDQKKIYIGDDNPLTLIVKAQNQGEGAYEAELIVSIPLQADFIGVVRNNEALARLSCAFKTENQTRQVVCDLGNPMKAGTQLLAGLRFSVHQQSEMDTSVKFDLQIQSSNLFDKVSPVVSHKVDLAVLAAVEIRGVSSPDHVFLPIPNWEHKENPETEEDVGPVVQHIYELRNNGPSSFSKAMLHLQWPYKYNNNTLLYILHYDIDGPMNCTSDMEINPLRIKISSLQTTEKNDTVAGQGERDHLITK
Sequence of integrin αvβ3 (P06756 891-1048 limits assumed): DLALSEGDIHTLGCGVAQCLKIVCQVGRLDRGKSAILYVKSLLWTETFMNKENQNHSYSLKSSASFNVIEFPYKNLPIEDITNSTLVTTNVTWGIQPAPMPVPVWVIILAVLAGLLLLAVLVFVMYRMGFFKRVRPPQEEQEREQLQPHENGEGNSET
Sequence of integrin αvβ3 (P05106 27-788): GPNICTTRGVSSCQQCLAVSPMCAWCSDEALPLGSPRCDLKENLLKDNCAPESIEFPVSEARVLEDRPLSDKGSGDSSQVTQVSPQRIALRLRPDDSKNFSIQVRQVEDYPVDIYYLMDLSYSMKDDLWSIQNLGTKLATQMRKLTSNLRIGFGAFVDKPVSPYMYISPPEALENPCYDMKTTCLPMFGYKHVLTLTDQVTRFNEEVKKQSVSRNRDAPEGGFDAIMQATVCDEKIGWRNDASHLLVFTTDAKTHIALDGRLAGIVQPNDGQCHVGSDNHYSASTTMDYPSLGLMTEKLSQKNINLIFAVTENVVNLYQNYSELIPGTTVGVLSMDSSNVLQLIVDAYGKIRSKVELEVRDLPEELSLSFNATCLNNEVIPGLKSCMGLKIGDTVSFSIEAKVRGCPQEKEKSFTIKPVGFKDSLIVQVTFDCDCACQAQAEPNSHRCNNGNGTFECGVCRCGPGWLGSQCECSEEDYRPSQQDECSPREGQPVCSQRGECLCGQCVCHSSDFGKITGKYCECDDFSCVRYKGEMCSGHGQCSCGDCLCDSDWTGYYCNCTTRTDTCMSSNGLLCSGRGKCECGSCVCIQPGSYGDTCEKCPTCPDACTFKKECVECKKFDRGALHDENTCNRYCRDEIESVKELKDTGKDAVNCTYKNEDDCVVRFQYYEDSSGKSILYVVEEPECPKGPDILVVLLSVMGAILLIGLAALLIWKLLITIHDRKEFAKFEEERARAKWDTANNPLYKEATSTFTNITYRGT

The test system of another data set is human endothelial cells. Put plainly: FACS binding of biotinylated proteins to endothelial cells in suspension. The data set is classed as cell-based. To be noted: 0.1 μM, 60 min at 4° C., streptavidin-phycoerythrin detection. As to the method: FIG. 6: Binding of tTF and tTF-RGD to human endothelial cells. A: FACS analysis of endothelial cells incubated with 0.1 μM tTF (2) or with 0.1 μM tTF-RGD (3) for 60 min at 4° C. […] Curves 1 in A and B show the negative control.
Next the specific binding of tTF-RGD to αvβ3 on endothelial cells was evaluated. For this, the differential binding of biotinylated tTF and tTF-RGD to endothelial cells in suspension was analysed by FACS (Fluorescence Activated Cell Sorting). The fact that all endothelial cells held in tissue culture are activated, i.e. express αvβ3 molecules, is utilized experimentally. This can be detected by various immunohistochemical methods. A cultivated endothelial cell thus corresponds, in relation to its expression pattern with respect to αvβ3 to a tumor endothelial cell. Accordingly, a cultivated endothelial cell can be used as a model system for the specific binding of substances to tumor endothelial cells and also permits predictions to be made concerning the expected toxicity.
Streptavidin-phycoerythrin was used as the detection method. The measured fluorescence intensity for tTF-RGD was higher by a factor of 8 than for tTF (FIG. 6A). Furthermore, the binding of 0.1 μM tTF-RGD to endothelial cells was lowered competitively by 75% by the administration of 1 μM of the synthetic peptide GRGDSP (SEQ ID NO:33) (FIG. 6B). […]

In data set [4] the test system is normal tissue such as heart, kidney, liver and lung. To be noted: mouse, in vivo.
Data set [5] has as its system human lung carcinoma (CCL185). Put plainly: CCL185 lung carcinoma xenograft in athymic nude mice, intravenous therapy. It is filed as in vivo.
Excerpt: FIG. 7: Inhibition of a human lung carcinoma (CCL185) growing as a xenograft in athymic nude mice by intravenous therapy with tTF fusion proteins (tTF-RGD, n=6; tTF-NGR, n=6) compared with tumor growth with infusion of physiological saline solution (NaCl, n=8) or tTF (n=1). The vertical arrows indicate the times of injection with the respective substances.
c: Inhibition of a human lung carcinoma (CCL185) growing as a xenograft in athymic nude mice by intravenous therapy with tTF fusion proteins (tTF-RGD, n=11) compared with the growth of the tumors in infusion of physiological saline solution (NaCl, n=10) or tTF (n=5). The vertical arrows indicate the times of the injections with the respective substances.
as §1

[6] abbreviates: melanoma tumor 1 hour after intravenous injection, HE staining.

For TTHWGFTL, in data set [1], the “inhibition of MMP-2” value is “selective and potent inhibition”.

B1: tTF-RGD: fusion polypeptide tTF-GRGDSP (SEQ ID NO:3), peptide coupled to C-terminus of tTF (protein)
chain: SGTTNTVAAYNLTWKSTNFKTILEWEPKPVNQVYTVQISTKSGDWKSKCFYTTDTECDLTDEIVKDVKQTYLARVFSYPAGNVESTGSAGEPLYENSPEFTPYLETNLGQPTIQSFEQVGTKVNVTVEDERTLVRRNNTFLSLRDVFGKDLIYTLYYWKSSSSGKKTAKTNTNEFLIDVDKGENYCFSVQAVIPSRTVNRKSTDSPVECMGQEKGEFRGRGDSD
modifications: Amino acid sequence of tTF-GRGDSP
For the molecule B1, the “Mean tumor volume Day 0” value was found to be 585 ± 85 mm^3 in data set [2] (M21 tumors, Day 0 (baseline)); 1725 ± 197 mm^3 in data set [3] (HT1080 tumors, Day 0 (baseline)); 45 ± 5 mm^3 in data set [5] (CCL185 tumors, Day 0 (baseline)). For the same molecule, the “Mean tumor volume Day 7” value in data set [2] (M21 tumors, Day 7) was 514 ± 81 mm^3; in data set [3] (HT1080 tumors, Day 7), 1241 ± 122 mm^3; in data set [5] (CCL185 tumors, Day 7), 130 ± 19 mm^3. For the same molecule, the “effect on tumor growth” value in data set [2] (M21 xenograft, intravenous therapy, compared with NaCl or tTF) was “Inhibition and partial remission”; in data set [3] (HT1080 xenograft, intravenous therapy, compared with control groups), “significant inhibition of growth; also recorded: partial regression of tumor volume”; in data set [5] (CCL185 xenograft, intravenous therapy, compared with NaCl or tTF), “Inhibition”. Further, the “H-E staining of tumors: thrombosis and necrosis” value with tumor blood vessels (FIG. 36, treated mice) was “Severe thrombosis and necrosis of tumor cells”. The “macroscopic appearance of tumor at the end of treatment” value in the data set with tumor blood vessels (M21 tumor, day 7) is on record as “clear signs of necrosis”. Besides, the “histology of tumor blood vessels (thrombus formation)” value with tumor blood vessels (setting [6]) is listed as “blood vessels appear to be thrombolytically occluded”. Moreover, the “histology: tumor necrosis in supply region of occluded vessel” value in the data set on tumor blood vessels (setting [6]) is “Extensive tumor necroses”. Further, the “binding to the αvβ3 integrin in ELISA” value in the data set with integrin αvβ3 is “demonstrated”. For the same molecule, in the data set with human endothelial cells, the “measured fluorescence intensity, factor higher than for tTF” value stood at 8. Also, the “H-E staining of heart, lung, liver and kidney (thrombosis, necrosis)” value in data set [4] is “did not show any visible thrombosis or necrosis”.
